From doi:10.1101/2021.12.06.471490 (bioRxiv, 2021)

Target: yeast tubulin heterodimer, Tub1-WT (internal 6X-His) with Tub2 (S. cerevisiae (budding yeast), UniProt P09733 1-447; P02557 1-457)
Test: pull-down

Chain of yeast tubulin heterodimer, Tub1-WT (internal 6X-His) with Tub2 (P09733 whole entry, chain 1 of 2): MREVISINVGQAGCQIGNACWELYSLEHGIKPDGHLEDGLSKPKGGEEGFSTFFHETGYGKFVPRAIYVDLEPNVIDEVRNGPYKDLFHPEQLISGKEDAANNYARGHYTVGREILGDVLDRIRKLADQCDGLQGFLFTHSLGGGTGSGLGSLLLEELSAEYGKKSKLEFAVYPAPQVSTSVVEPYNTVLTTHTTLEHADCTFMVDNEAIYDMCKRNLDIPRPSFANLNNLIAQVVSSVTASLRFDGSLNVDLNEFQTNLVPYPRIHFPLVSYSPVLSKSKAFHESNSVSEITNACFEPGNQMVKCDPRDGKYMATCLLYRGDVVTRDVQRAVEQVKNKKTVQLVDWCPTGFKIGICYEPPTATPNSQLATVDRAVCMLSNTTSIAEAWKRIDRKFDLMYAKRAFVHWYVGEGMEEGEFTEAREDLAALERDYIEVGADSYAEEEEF
Chain of yeast tubulin heterodimer, Tub1-WT (internal 6X-His) with Tub2 (P02557 whole entry, chain 2 of 2): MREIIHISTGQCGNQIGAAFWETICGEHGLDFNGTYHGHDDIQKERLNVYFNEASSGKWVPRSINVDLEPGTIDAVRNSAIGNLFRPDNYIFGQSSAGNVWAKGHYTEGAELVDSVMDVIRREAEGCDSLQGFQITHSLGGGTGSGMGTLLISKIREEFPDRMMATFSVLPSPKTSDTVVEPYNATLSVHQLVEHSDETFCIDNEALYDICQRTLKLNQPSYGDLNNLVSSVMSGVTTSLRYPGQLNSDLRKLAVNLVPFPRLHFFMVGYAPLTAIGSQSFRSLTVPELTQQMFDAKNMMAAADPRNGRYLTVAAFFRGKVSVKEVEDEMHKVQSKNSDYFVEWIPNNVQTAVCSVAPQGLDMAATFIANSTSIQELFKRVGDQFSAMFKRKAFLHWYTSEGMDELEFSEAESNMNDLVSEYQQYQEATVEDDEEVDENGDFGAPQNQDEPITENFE

binding result: binds
B1: GST-TOG1/2 (the two TOG domains of Stu2 fused to a GST tag; Stu2 1-590) (domain or fragment, S. cerevisiae (budding yeast), UniProt P46675 1-590, looked up)
chain: MSGEEEVDYTTLPLEERLTYKLWKARLEAYKELNQLFRNSVGDISRDDNIQIYWRDPTLFAQYITDSNVVAQEQAIVALNSLIDAFASSSLKNAHNITLISTWTPLLVEKGLTSSRATTKTQSMSCILSLCGLDTSITQSVELVIPFFEKKLPKLIAAAANCVYELMAAFGLTNVNVQTFLPELLKHVPQLAGHGDRNVRSQTMNLIVEIYKVTGNNSDLLEEILFKKLKPIQVKDLHKLFAKVGDEPSSSKMLFEWEKRELEKKRSQEEEARKRKSILSNDEGEYQIDKDGDTLMGMETDMPPSKQQSGVQIDTFSMLPEETILDKLPKDFQERITSSKWKDRVEALEEFWDSVLSQTKKLKSTSQNYSNLLGIYGHIIQKDANIQAVALAAQSVELICDKLKTPGFSKDYVSLVFTPLLDRTKEKKPSVIEAIRKALLTICKYYDPLASSGRNEDMLKDILEHMKHKTPQIRMECTQLFNASMKEEKDGYSTLQRYLKDEVVPIVIQIVNDTQPAIRTIGFESFAILIKIFGMNTFVKTLEHLDNLKRKKIEETVKTLPNFSIASGSTHSTIETNKQTGPMENKFLLK
